# Results reported in the DeepSol protein solubility set.
# Test: soluble on expression in E. coli; label from the status in PepcDB or PDB records
row,Sequence,soluble on expression in E. coli
1,MGSDKIHHHHHHMLEELRTLVLFAEEGSIQNVARRLPLTQPAVTRQMQRLEDMLATTLLDRRQKPPRLTAAGLEVLARAKDILASVEALKAFAADAEPQGVLRVGLAHGLSDASIAGAIAGAAAAFPKISLRLKTGWSAELIEQFERGQLDMAIVLRPADHQGPDALGTERLCIIAQAGAHLTDARVPMPWVLSPEPCDARQTLLSSLGGERHPLIVAAEIQDPAMQMEWVRRGHGLGLMPLRLAARGLPDGLALVDLEDVDLSLQVVALRSPHLNRLAKAVEAIAQTVGEAIKIEA,not soluble
2,MGSDKIHHHHHHMLEFTKRSLMNKYNINERVLELYERALNDVEKEFKYYDEIREYNQLKVLKAFQEERISESHFTNSSGYGYNDIGRDSLDRVYANIFNTESAFVRPHFVNGTHAIGAALFGNLRPNDTMMSICGMPYDTLHDIIGMDDSKKVGSLREYGVKYKMVDLKDGKVDINTVKEELKKDDSIKLIHIQRSTGYGWRKSLRIAEIAEIIKSIREVNENVIVFVDNCYGEFVEEKEPTDVGADIIAGSLIKNIGGGIATTGGYIAGKEEYVTQATFRVTVPGIGGECGSTFGVMRSLYEGLFMAPHVTIEAVKGAVFCARIMELAGFDVLPKYNDKRTDIIQAIKFNDEKKLIDFIKGIQTASPVDSFVQCEAWDMPGYEDKVIMAAGTFVQGASIELSADAPIREPYIGYLQGGLTFDHAKLGVLIALSKLIM,not soluble
3,MGSDKIHHHHHHMLEGEFLSVAELKDLTLSLASKFLNNLLASKLLVSKQLFIDRKKELGLLEERLKSGKAQFIVIYGRRRVGKTALILEFLRRHGGLYLLARETSEIENLERFSLRLAEYFNDSFLKKNPLRSLDAFFEYLSTKAEKPFIIAIDEFPYLVKGNKALPSILQEYWEMKLSKKKIFLIVSGSSVSMTERLLGYKSPLYGRRTAQLKLKPLDFFNAREFLPKYSLEDFVRVYGILGGTPAYLLEFSDEKSLEENLKSYFRVDSLLYGDALFILREELDEPRNYFAIMEAIARGNTTLGEIVNETGLERATVGKYLSVLIDLDLVRREVPITASRKSRKGRYYIADNYFAFWFRYVYPNADLIESGNGELLVDTVMDDIDHYTGEVFEGVAKEFLLRLNKSERLPFRFSRVGRWWYKNEEIDLVALNEREKKVLFIEVKWKDLSKREARGILKDLKRKAKLVGLDEWGKHYGLVAKSVRGKDEIKEEGWLAWDLEDIHRMAF,not soluble
4,MGSDKIHHHHHHMLEGKVAVVTGGGQGIGAAIAQLFAENGMKVVIAEIDEEAGVEREEMLRERGLDVTFVKTDVADENSVKNMVRKTVEIYGGVDVLVNNAAVMSVKSIFERPLEEWERVIRVNLTGPYICSRYCAEEMIKRGGGVIINIASTRAFQSEPDTEPYSASKGGLVALTHSLAVSLSRYHIRVVSISPGWIETSEWKKKSLRKKPDLRPIDHEQHPAGRVGNPLDIAHLCVFLADDEKAGFITGTNFIVDGGMTVKMIYEE,not soluble
5,MGSDKIHHHHHHMLGLIKKKANTLLGIDISSTSVKLLELSRSGGRYKVEAYAVEPLPPNAVVEKNIVELEGVGQALSRVLVKAKTNLKSAVVAVAGSAVITKTIEMEAGLSEDELENQLKIEADQYIPYPLEEVAIDFEVQGLSARNPERVDVLLAACRKENVEVREAALALAGLTAKVVDVEAYALERSYALLSSQLGADTDQLTVAVVDIGATMTTLSVLHNGRTIYTREQLFGGRQLTEEIQRRYGLSVEEAGLAKKQGGLPDDYDSEVLRPFKDAVVQQVSRSLQFFFAAGQFNDVDYIVLAGGTASIQDLDRLIQQKIGTPTLVANPFADMALNGKVNAGALASDAPALMIACGLALRSFD,not soluble
6,MGSDKIHHHHHHMLHGTTTKAADALDITQPAVSKILLQLTNKAGFPLFRNHRQRLIPTPEAHMLYAEVRRLFETVRGISQIAKEIRELRSGRLNISALPAFGSTLMPSIIASFTKQYPDVAITLDIRSSSTIIQRAGRNQLDIGVASEVNDETPSVVRRALIATPPVCVMPKGHPLSKLSVVQPDDFDGLNFVSLGVGDPMRKQLDELCEQRGVNRSLKVEAALSHSCINLVANGVGVTVVDRLSAWMAKDLPIEIRDFQPHLDINLSVYRPWGTIASSVADTFIEHLIQSTREYMNVVDRGIKALSEQ,not soluble
7,MGSDKIHHHHHHMLIRLGYEIAIECAEATPVISLLEIHKDRQADIKRQTRVLTSPSVPTKLYHDLHGNGCRRFTAPAGTFRILYDAVIEDSGETDEVNTLAREVPVAELPDEVLFYLLGSRYCETDHLSSLAWQLFGHLPSGWARVQAIVDYVHNRLSFGYGYARSTRTAAQAHEERVGVCRDFAHLAITLCRCMNIPARYVNGYLGDIGVPIDPAPMDFSAWMEVFLDGKWYTFDPRHNQPRTGRIVIARGRDATDVPLLHSFGPHRLCLFKVWTYEQEGRSFNPPHRGIDRTVSAQMLA,not soluble
8,MGSDKIHHHHHHMLKDFAKLETFLIVVRERSFSKASAKLGISQPAVTQQIKYIEEYLDTKIIERKKNGVKLTKDGEKLLTIALRLERAIVTAEKETMKIIKKDFSFNIGASFTIGNYILPNCLGNIKEMIKNDVFVKIDSSDNIIEALIEKKIDLALIESPIFKDNIVYREWVEDEFVLFSNSPLPKTVKKEDLLTFSWICREWGSNTRRIINETLDDVGIDCTTFDIKGVVSSSTGVKHTVLKSPKFPEESPKPTVAILSKYVVQDDLVNNSLHESKIRGCKLKRKLYLAYLKDRKNDAFVDTVSSCLMCNKNLG,not soluble
9,MGSDKIHHHHHHMLKDLVREKLLTIMNTKAYTQFNPEQLLQLENEMKIYMKSGDSALTEGNYFFLMEMLFYVLVYRNQDVDAQVVYNTLRDRLGENSYKMVIMKATLLQINGNDKGAIEYLENLLNDDLEYETDFVTYVSIAKKLIAIKTTSKNLSQESVLKEVVALTDKFPLDAELWWYASEIYFEMGQFEKACYCLEQVLCITPFNYACFGRLSETLYYEALRSKKQTKTELLEKALKNALRSVELSELYLKGWALVNIISRELGRNKQNDLIKLSASKLKEISAKSNNKDKITAELILNKI,not soluble
10,MGSDKIHHHHHHMLKFGTAGIPINAKNTESALEYLKEIKLDAMELEFVRGVNLKAEKAESLAKNLKITLSAHAPYYINLNAKEPEKIESSIKRIVDSAKIISIFNKKNSENKNVVFHSGFYLKQDKDLVYEKIKVNIQKILKIMDENKINAILRPETTGKISQFGSIDELIQLSTEIDIMPCIDFSHVYARSLGKINDYDSFSNILSKLENNLGKKGIKDMHIHISGIDFGNGGEKKHFPILNSEFNYMAVLKALKDFECSGTVICESPKLEYDAVILKKNYEEL,not soluble
11,MGSDKIHHHHHHMLKNIPIPSPLSPVEGILIKRKTLERYFSIERLEQQAHQRAKRILREAEEEAKTLRMYAYQEGYEQGMIDALQQVAAYLTDNQTMAWKWMEKIQIYARELFSAAVDHPETLLTVLDEWLRDFDKPEGQLFLTLPVNAKKDHQKLMVLLMENWPGTFNLKYHQEQRFIMSCGDQIAEFSPEQFVETAVGVIKHHLDELPQDCRTISDNAINALIDEWKTKTQAEVIR,not soluble
12,MGSDKIHHHHHHMLNDFVDRCVWAADLSAEQRDRVRRAMFVREYTQGDYVCHKGEIAEHWLGVLEGIVKITTVSPSGKSVTFTGVPTGGWFGEGAVLKSEIRKYDVMALRRSTIAFLPRDTFQWLLDTSLPFTRFLLTQFNERLGQFIAAVEYERLLDIDSRVARAVSSLFNEHLYPGIGNTLEISQEEIGLLAGISRQRANQALKVLEQQGLVRVDYGVIEVLDLEGLRQYGE,not soluble
13,MGSDKIHHHHHHMLNIDGSKYIVNNNLKNYLDNIKKPWGILFYRVLWQQLDKIKTSKVLDFGSGFGITANHFASNNMVIAIEPNSELVEARIQENDYIQIVGDLKALKSQKDNYFDVILCHNVFEYAKEREEIFKEFLRILKPGGIISLVKHNHAGRIMQKVVFENNIDEAEKLLNGGIIEVLGFGKVSYYKLEDIKKWCKGFEVEIIKVLGIRTFWALQQDNKIKEDPIWQEKMFKIEMMVSNIDEYVNISFFNHIILKKALKNYALE,not soluble
